Assay results as given in the supplement of paper PMC7877785.
± gives the uncertainty stated by the source.

Assay: self-splicing fitness, log relative to wild type (ln ratio); higher = more splicing; Tetrahymena group I intron in knt gene, E. coli kanamycin selection, DiMSum; sequences stand for … in CUCUCU…GGAGGGAAAAGUUAUCAGGCAUGCACCUGGUAGCUAGUCUUUAAACCAAUAGAUUGCAUCGGUUUAAAAGGCAAGACCGUCAAAUUGCGGGAAAGGGGUCAACAGCCGUUCAGUACCAAGUCUCAGGGGAAACUUUGAGAUGGCCUUGCAAAGGGUAUGGUAAUAAGCUGACGGACAUGGUCCUAACCACGCAGCCAAGUCCUAAGUCAACAGAUCUUCUGUUGAUAUGGAUGCAGUUCACAGACUAAAUGUCGGUCGGGGAAGAUGUAUUCUUCUCAUAAGAUAUAGUCGGACCUCUCCUUAAUGGGAGCUAGCGGAUGAAGUGAUGCAACACUGGAGCCGCUGGGAACUAAUUUGUAUGCGAAAGUAUAUUGAUUAGUUUUGGAGUACUCGUGGUCG
Method in brief: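 A randomised library covering all eight P1ex-region intron nucleotides was built with the intron in the knt kanamycin-resistance gene on pET-22b(+) and held in E. coli BL21(DE3). Cells were grown overnight at 37°C or 30°C on LB agar, with or without 25 μg/mL kanamycin, plus 100 μg/mL carbenicillin, 50 μM IPTG and 0.2% rhamnose, and pooled colonies were amplicon-sequenced on an Illumina HiSeq 2500. DiMSum fitness is the error-weighted combination of wild-type-normalised replicate fold changes, kanamycin versus none.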

Sequence	self-splicing fitness (ln) (30 °C)	self-splicing fitness (ln) (37 °C)
CGGUAGCAAUAUUACGUGAG	-0.593 ± 0.059	0.467 ± 0.092
CGGUAGCAAUAUUACGUGCA	-1.61 ± 0.12	-0.501 ± 0.13
CGGUAGCAAUAUUACGUGCC	-1.18 ± 0.14	-4.06 ± 0.34
CGGUAGCAAUAUUACGUUAC	-3.32 ± 0.36	-2.09 ± 0.31
CGGUAGCAAUAUUACGUUGA	-3.27 ± 0.35	-1.76 ± 0.17
CGUAAGCAAUAUUACGAACA	-1.23 ± 0.19	-0.207 ± 0.22
CGUAAGCAAUAUUACGAAUU	-3.76 ± 0.29	-2.17 ± 0.21
CGUAAGCAAUAUUACGACCG	-0.867 ± 0.1	-0.46 ± 0.19
CGUAAGCAAUAUUACGACGC	-1.86 ± 0.3	-2.02 ± 0.28
CGUAAGCAAUAUUACGACUA	-2.29 ± 0.27	-1.96 ± 0.24
CGUAAGCAAUAUUACGAUCC	-2.82 ± 0.33	-1.82 ± 0.3
CGUAAGCAAUAUUACGCACG	-1.76 ± 0.14	-1.06 ± 0.17
CGUAAGCAAUAUUACGCAGG	-2.25 ± 0.094	-1.02 ± 0.11
CGUAAGCAAUAUUACGCCAG	-2.15 ± 0.15	-0.931 ± 0.18
CGUAAGCAAUAUUACGCGCA	-1.3 ± 0.16	-0.345 ± 0.14
CGUAAGCAAUAUUACGCGCU	-2.03 ± 0.14	-1.52 ± 0.15
CGUAAGCAAUAUUACGCGUC	-3.79 ± 0.21	-2.87 ± 0.19
CGUAAGCAAUAUUACGGACA	-0.986 ± 0.099	-1.18 ± 0.12
CGUAAGCAAUAUUACGGCAC	-3.68 ± 0.29	-0.595 ± 0.22
CGUAAGCAAUAUUACGGCCG	-0.668 ± 0.11	0.0976 ± 0.13
CGUAAGCAAUAUUACGGCCU	-3.28 ± 0.26	-1.54 ± 0.22
CGUAAGCAAUAUUACGGGUA	-2.63 ± 0.15	-2.48 ± 0.21
CGUAAGCAAUAUUACGGUGU	-4.11 ± 0.25	-3.24 ± 0.21
CGUAAGCAAUAUUACGUACA	-1.59 ± 0.13	-0.137 ± 0.13
CGUAAGCAAUAUUACGUCGA	-2.94 ± 0.21	-3.07 ± 0.2

Sequence	self-splicing fitness (ln) (30 °C)	self-splicing fitness (ln) (37 °C)
CGUAAGCAAUAUUACGUGCC	-2.64 ± 0.23	-1.67 ± 0.2
CGUAAGCAAUAUUACGUGUU	-2.37 ± 0.1	-3.63 ± 0.2
CGUAAGCAAUAUUACGUUAU	-4.56 ± 0.26	-1.45 ± 0.19
CGUAAGCAAUAUUACGUUCG	-0.989 ± 0.056	-0.453 ± 0.078
CGUAAGCAAUAUUACGUUGA	-3.23 ± 0.19	-2.58 ± 0.18
CGUCAGCAAUAUUACGACUA	-0.58 ± 0.13	0.632 ± 0.18
CGUCAGCAAUAUUACGACUC	-0.282 ± 0.11	0.339 ± 0.16
CGUCAGCAAUAUUACGCCCG	-1.23 ± 0.17	-0.0073 ± 0.24
CGUCAGCAAUAUUACGCCUC	–	-3.1 ± 0.34
CGUCAGCAAUAUUACGCCUG	-0.469 ± 0.099	0.582 ± 0.12
CGUCAGCAAUAUUACGCGAC	-2.57 ± 0.49	–
CGUCAGCAAUAUUACGCGAU	-3.23 ± 0.29	-1.76 ± 0.42
CGUCAGCAAUAUUACGCGUA	-1.93 ± 0.18	-0.985 ± 0.12
CGUCAGCAAUAUUACGCUGA	-2.3 ± 0.3	-1.89 ± 0.33
CGUCAGCAAUAUUACGGACA	-0.0785 ± 0.094	0.394 ± 0.15
CGUCAGCAAUAUUACGGAUU	-1.35 ± 0.1	-0.245 ± 0.1
CGUCAGCAAUAUUACGGUAC	-3.64 ± 0.31	-1.89 ± 0.27
CGUCAGCAAUAUUACGUGCU	-3.04 ± 0.26	-2.39 ± 0.27
CGUCAGCAAUAUUACGUGUA	-3.11 ± 0.099	-1.66 ± 0.083
CGUCAGCAAUAUUACGUUGA	-3.04 ± 0.26	-2.26 ± 0.19
CGUCAGCAAUAUUACGUUGC	-3.95 ± 0.26	-2.89 ± 0.18
CGUGAGCAAUAUUACGAAUU	–	-0.866 ± 0.17
CGUGAGCAAUAUUACGACUA	-2.94 ± 0.47	-1.94 ± 0.36
CGUGAGCAAUAUUACGAGUA	–	-0.918 ± 0.47
CGUGAGCAAUAUUACGCCAA	-3.41 ± 0.36	–

Sequence	self-splicing fitness (ln) (30 °C)	self-splicing fitness (ln) (37 °C)
CGUGAGCAAUAUUACGCGUA	–	-1.86 ± 0.47
CGUGAGCAAUAUUACGCGUC	-3.12 ± 0.31	–
CGUGAGCAAUAUUACGCUCA	-2.84 ± 0.31	–
CGUGAGCAAUAUUACGCUUU	-2.54 ± 0.35	-1.98 ± 0.28
CGUGAGCAAUAUUACGGAAA	-2.27 ± 0.3	-1.14 ± 0.27
CGUGAGCAAUAUUACGGAUA	-3.1 ± 0.3	-2.71 ± 0.34
CGUGAGCAAUAUUACGGUCG	-1.17 ± 0.083	-0.688 ± 0.13
CGUGAGCAAUAUUACGUACA	-1.46 ± 0.053	-0.707 ± 0.059
CGUGAGCAAUAUUACGUAGG	-1.12 ± 0.089	-1.39 ± 0.12
CGUGAGCAAUAUUACGUGAC	-4.11 ± 0.36	–
CGUGAGCAAUAUUACGUGUC	-3 ± 0.4	-3.04 ± 0.43
CGUGAGCAAUAUUACGUGUG	-1.39 ± 0.1	-0.501 ± 0.1
CGUGAGCAAUAUUACGUUUG	-2.04 ± 0.12	-1.5 ± 0.21
CGUUAGCAAUAUUACGAAGA	-2.24 ± 0.29	–
CGUUAGCAAUAUUACGAAUA	-1.54 ± 0.17	-1.69 ± 0.36
CGUUAGCAAUAUUACGACCC	-2.92 ± 0.43	–
CGUUAGCAAUAUUACGAGGG	-3.63 ± 0.47	-0.739 ± 0.19
CGUUAGCAAUAUUACGCAAG	-1.97 ± 0.13	-1.18 ± 0.14
CGUUAGCAAUAUUACGCCUG	-0.175 ± 0.085	0.664 ± 0.1
CGUUAGCAAUAUUACGCGCA	-1.01 ± 0.29	-0.131 ± 0.47
CGUUAGCAAUAUUACGCUUU	–	-2.41 ± 0.3
CGUUAGCAAUAUUACGGCCU	-1.53 ± 0.15	-1.26 ± 0.23
CGUUAGCAAUAUUACGGGAU	–	-2.25 ± 0.26
CGUUAGCAAUAUUACGGGGU	-3.72 ± 0.24	-2.03 ± 0.35
CGUUAGCAAUAUUACGGUCG	-1.03 ± 0.11	0.369 ± 0.12

Sequence	self-splicing fitness (ln) (30 °C)	self-splicing fitness (ln) (37 °C)
CGUUAGCAAUAUUACGUCGU	–	-1.81 ± 0.33
CGUUAGCAAUAUUACGUGGC	-2.5 ± 0.25	-2.75 ± 0.25
CGUUAGCAAUAUUACGUGUG	-0.838 ± 0.062	-1.12 ± 0.08
CGUUAGCAAUAUUACGUUGG	-1.45 ± 0.091	-0.573 ± 0.12
CUAAAGCAAUAUUACGAAAG	0.0922 ± 0.092	0.21 ± 0.12
CUAAAGCAAUAUUACGACUA	-2.79 ± 0.21	-1.78 ± 0.17
CUAAAGCAAUAUUACGAGGA	-4.32 ± 0.29	-1.62 ± 0.27
CUAAAGCAAUAUUACGAUGG	-0.196 ± 0.058	0.0185 ± 0.091
CUAAAGCAAUAUUACGAUUC	-3.33 ± 0.31	-3.73 ± 0.46
CUAAAGCAAUAUUACGCAAU	-3.94 ± 0.21	-2.97 ± 0.24
CUAAAGCAAUAUUACGCCUG	0.183 ± 0.087	0.129 ± 0.099
CUAAAGCAAUAUUACGCCUU	-3.79 ± 0.26	-1.25 ± 0.22
CUAAAGCAAUAUUACGCGAU	-0.384 ± 0.051	0.349 ± 0.062
CUAAAGCAAUAUUACGCGGA	-3.85 ± 0.3	-3.62 ± 0.24
CUAAAGCAAUAUUACGCGGU	-1.44 ± 0.097	-1.2 ± 0.094
CUAAAGCAAUAUUACGGACA	-3.1 ± 0.17	-2.34 ± 0.21
CUAAAGCAAUAUUACGGACG	0.255 ± 0.084	-0.189 ± 0.092
CUAAAGCAAUAUUACGGCGA	-3.59 ± 0.25	-1.96 ± 0.19
CUAAAGCAAUAUUACGGCGU	-3.68 ± 0.23	-3.05 ± 0.35
CUAAAGCAAUAUUACGGGAU	-1.86 ± 0.087	-0.984 ± 0.12
CUAAAGCAAUAUUACGGGUC	-3.75 ± 0.21	-3.33 ± 0.37
CUAAAGCAAUAUUACGGUAA	-3.53 ± 0.15	-2.36 ± 0.18
CUAAAGCAAUAUUACGGUGA	-4.11 ± 0.2	-1.6 ± 0.14
CUAAAGCAAUAUUACGUACG	0.59 ± 0.095	0.0866 ± 0.099
